Consider two molecules from US20250382388A1 (ARGENX, published 2025).

The target of experiment [1] is T1, human serum albumin (human, UniProt P02768 25-609).
T1 construct: Immobilised on SPR chips; also added in solution to the cell assays; also called HSA; humanSA
As to the kind of experiment: SPR, pH 7.4 (ka and kd N/A). (In general: In SPR one partner is held on a chip, and binding of the other changes the refractive index at the surface.)

The target in experiment [2] is T1, human serum albumin. In words: SPR, pH 7.4 and 5.5.
The target of experiment [3] is T2, neonatal Fc receptor (FcRn), endogenous in U937 cells (UniProt P55899 24-365; P61769 21-119).
T2 construct: whole, on cells; Free FcRn was stained inside fixed and permeabilised cells
In words: cell FcRn occupancy, flow cytometry, free FcRn stained with labelled anti-FcRn Fab, U937 cells, 2,500 nM HSA (SD 0.1). On the technique in general: Flow cytometry measures light scatter and fluorescence of single cells or particles in a stream.
Method: (§1) Next, FcRn occupancy was tested using a cell-based FcRn occupancy assay in the presence or absence of albumin. Briefly, test articles (Fc-ABDEG-VHH molecules) were pre-incubated with HSA for 30 minutes at 37° C., pH 7.4 in FACS buffer. Cells (HEK FcRn mut or U937) were plated in a 96-well microplate. Cells were incubated with test article for two hours, shaking at 37° C., pH 7.4 in FACS buffer. Plates were then transferred immediately on ice and cells were collected by centrifugation at 4° C. Cells stained for viability in FACS buffer at pH 6 and then fixed/permeabilized in permeabilization buffer at pH 6. […] Cells were analyzed by FACS, ensuring that they are kept on ice until immediately prior to analysis.

The target of experiment [4] is T1, human serum albumin. As to the kind of experiment: SPR, pH 5.5.
Experiment [5] has as its target T1, human serum albumin. In words: SPR, Langmuir 1:1 or steady state model, pH 7.4 (ka and kd N/A).
For experiment [6], the target named is T1, human serum albumin. In words: SPR, Langmuir 1:1 or steady state model, pH 5.5.
Experiment [7] deals with T1, human serum albumin. As to the kind of experiment: SPR, pH 5.5 (ka and kd N/A).
In experiment [8] the target is T2, neonatal Fc receptor (FcRn), endogenous …. In words: cell FcRn occupancy, flow cytometry, free FcRn stained with labelled anti-FcRn Fab, U937 cells, 2,500 nM HSA (SD 0.5).
Method: as §1

T2 sequence (P55899 24-365 limits assumed, chain 1 of 2): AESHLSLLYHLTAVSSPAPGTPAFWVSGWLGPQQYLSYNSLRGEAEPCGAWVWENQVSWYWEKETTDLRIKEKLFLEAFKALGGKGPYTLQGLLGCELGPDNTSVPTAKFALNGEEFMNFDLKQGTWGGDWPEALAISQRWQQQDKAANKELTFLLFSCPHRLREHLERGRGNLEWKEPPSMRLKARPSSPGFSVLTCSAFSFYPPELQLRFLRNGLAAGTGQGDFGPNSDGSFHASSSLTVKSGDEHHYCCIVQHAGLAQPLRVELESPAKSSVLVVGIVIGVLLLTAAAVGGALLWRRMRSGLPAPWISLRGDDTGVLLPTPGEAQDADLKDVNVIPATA
T2 sequence (P61769 21-119 limits assumed, chain 2 of 2): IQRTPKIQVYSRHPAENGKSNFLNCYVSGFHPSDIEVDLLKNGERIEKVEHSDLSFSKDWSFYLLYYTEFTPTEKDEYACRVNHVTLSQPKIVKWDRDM

B1: ABDEG-30GS-Alb23-SM (Fc fusion)
chain 1: DKTHTCPPCPAPELLGGPSVFLFPPKPKDTLYITREPEVTCVVVDVSHEDPEVKFNWYVDGVEVHNAKTKPREEQYNSTYRVVSVLTVLHQDWLNGKEYKCKVSNKALPAPIEKTISKAKGQPREPQVYTLPPSRDELTKNQVSLWCLVKGFYPSDIAVEWESNGQPENNYKTTPPVLDSDGSFFLYSKLTVDKSRWQQGNVFSCSVMHEALKFHYTQKSLSLSPGGGGGSGGGGSGGGGSGGGGSGGGGSGGGGSEVQLLESGGGLVQPGGSLRLSCAASGFTFRSAGMSWVRQAPGKGPEWVSSISGSGSDTLYADSVKGRFTISRDNSKNTLYLQMNSLRPEDTAVYYCTIGGSLSRSSQGTLVTVSS
chain 2: DKTHTCPPCPAPELLGGPSVFLFPPKPKDTLYITREPEVTCVVVDVSHEDPEVKFNWYVDGVEVHNAKTKPREEQYNSTYRVVSVLTVLHQDWLNGKEYKCKVSNKALPAPIEKTISKAKGQPREPQVYTLPPSRDELTKNQVSLSCAVKGFYPSDIAVEWESNGQPENNYKTTPPVLDSDGSFFLVSKLTVDKSRWQQGNVFSCSVMHEALKFHYTQKSLSLSPG
notes: also called OA-Fc-ABDEG-30GS-Alb23-F32A; OA-ABDEG-30GS-Alb23-SM
As usually defined, the Kd is the free concentration of one partner at which half of the binding sites on the other are occupied at equilibrium, for simple one-to-one binding. The low end stands for higher affinity, the high end for lower affinity. As usually defined, the IC50 is the concentration that inhibits the measured activity by half. A word on the koff: it is the first-order rate constant of dissociation. The low end stands for a long-lived complex, the high end for a short-lived complex. What is called kon is the rate constant with which the complex forms. A low value points to slower complex formation. As for B1, the dissociation constant (Kd) with human serum albumin [1] was 49 µM; with human serum albumin [4] it was 20.3 µM; in the experiment with human serum albumin [5], 49 µM; in the experiment with human serum albumin [6], 20.3 µM. Further, in the experiment with human serum albumin [2], the “fold decrease in affinity against OA-Fc-ABDEG-Alb23” value was more than 300 fold. For the same molecule, in experiment [3], the IC50 came to 0.0021 µM. Also, the dissociation rate constant (koff) with human serum albumin [4] and with human serum albumin [6] was 0.351 s⁻¹ each time. Moreover, the association rate constant (kon) with human serum albumin [4] and with human serum albumin [6] was 17300 M⁻¹ s⁻¹ throughout.

B2: ABDEG-30GS-Alb23-SM-A (Fc fusion)
chain 1: DKTHTCPPCPAPELLGGPSVFLFPPKPKDTLYITREPEVTCVVVDVSHEDPEVKFNWYVDGVEVHNAKTKPREEQYNSTYRVVSVLTVLHQDWLNGKEYKCKVSNKALPAPIEKTISKAKGQPREPQVYTLPPSRDELTKNQVSLWCLVKGFYPSDIAVEWESNGQPENNYKTTPPVLDSDGSFFLYSKLTVDKSRWQQGNVFSCSVMHEALKFHYTQKSLSLSPGGGGGSGGGGSGGGGSGGGGSGGGGSGGGGSEVQLLESGGGLVQPGGSLRLSCAASGFTFRSAGMSWVRQAPGKGPEWVSSISGSGSDTLYADSVKGRFTISRDNSKNTLYLQMNSLRPEDTAVYYCTIGGSLSRSSQGTLVTVSSA
chain 2: B1 chain 2
Consider B2, for which the dissociation constant Kd in the experiment with human serum albumin [7] came to 19 µM; in the experiment with human serum albumin [1], 31.4 µM. In experiment [8], this molecule registered an IC50 of 0.0023 µM.
